Test [1] deals with T1, Human CEACAM6-Domain 1-His (expressed in E. coli), wild-type (human).
T1 construct: entry includes the His tag; also called hDOM1
T1 chain: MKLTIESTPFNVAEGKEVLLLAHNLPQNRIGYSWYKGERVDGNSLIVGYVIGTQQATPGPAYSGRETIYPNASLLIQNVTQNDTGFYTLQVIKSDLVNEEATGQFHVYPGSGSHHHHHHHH
The test can be described thus: SPR, antibody captured, antigen as analyte. The method, then: (§1) Surface plasmon resonance (SPR) experiments for quantitative binding analyses were performed either using a Biacore T100, Biacore T200 or a Biacore 4000 instrument (GE Healthcare Biacore, Inc.) equipped with Series S Sensor Chips CM5 (GE Healthcare Biacore, Inc.). Binding assays were carried out at 25° C. with assay buffer HBS-EP+(10 mM HEPES pH 7.4, 150 mM NaCl, 3 mM EDTA, 0.05% Surfactant P20). Antibodies were captured with an anti-hIgG capture antibody covalently immobilized to the chip surface via amine coupling chemistry. Reagents for amine coupling (1-ethyl-3-(3-dimethylaminopropyl) carbodiimide hydrochloride (EDC), N-hydroxysuccinimide (NHS), ethanolamine-HCl pH 8.5) were used from the Amine Coupling Kit (GE Healthcare, product code BR-1000-50). Anti-hIgG, anti-mIgG capture antibodies and immobilization buffer (10 mM sodium acetate pH 5.0) were used from the Human Antibody Capture Kit (GE Healthcare, BR-1008-39) and the Mouse Antibody Capture Kit (GE Healthcare, BR-1008-38), respectively. The sensor chip surface was activated with a freshly prepared solution of 0.2 M EDC and 0.05 M NHS passed over the chip surface for 420 s at a flow rate of 10 μl/min, followed by an injection of anti-hIgG or anti-mIgG capture antibody (dissolved to 25 μg/ml in immobilization buffer) for 180 s at a flow rate of […]. Excess of activated groups were blocked with a 1 molar solution of ethanolamine injected at a flow rate of 10 μl/min for 420 s.
(§2) CEACAM antigens were used as analyte to determine KD values. Antibodies were captured for 20 s at a flow rate of 10 μl/min prior to each analyte injection.
In general terms: In SPR one partner is held on a chip, and binding of the other changes the refractive index at the surface.

The target in test [2] is T2, Macaca fascicularis CEACAM6-Domain 1-His (expressed in E. coli) (Macaca fascicularis).
T2 construct: entry includes the His tag; also called TPP-2453; Recombinant single domain 1 of Macaca fascicularis CEACAM6
T2 chain: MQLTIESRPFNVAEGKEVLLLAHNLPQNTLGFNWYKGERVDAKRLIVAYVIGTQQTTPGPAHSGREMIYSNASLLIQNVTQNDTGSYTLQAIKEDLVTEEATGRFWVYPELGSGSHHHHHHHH
The test can be described thus: SPR, antibody captured, antigen as analyte. The procedure: as §1, §2

Test [3] has as its target T3, human CEACAM6, full-length, on cells (human, UniProt P40199 35-320).
T3 construct: used both for transfected HeLa cells and for tumor cell lines that express CEACAM6 endogenously; also called TPP-4639; HeLa human CEACAM6
T3 sequence: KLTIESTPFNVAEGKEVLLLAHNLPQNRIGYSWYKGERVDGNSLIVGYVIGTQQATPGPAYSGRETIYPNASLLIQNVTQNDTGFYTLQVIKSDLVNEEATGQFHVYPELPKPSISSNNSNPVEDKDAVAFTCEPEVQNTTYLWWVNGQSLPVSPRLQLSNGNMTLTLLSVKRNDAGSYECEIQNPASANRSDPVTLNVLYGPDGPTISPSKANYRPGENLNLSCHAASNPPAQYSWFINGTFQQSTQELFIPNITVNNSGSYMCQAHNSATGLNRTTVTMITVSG
The test can be described thus: FACS, transfected HeLa cells. The procedure: (§3) For FACS experiments HeLa wild type cells were cultured in RPMI-1640, 10% FCS, while CEACAM-receptor transfected HeLa cells received in addition 0.5% Gentamycin (stock 10 mg/ml, Fa. PAA) and 200 μg/ml Hygromycin B (stock 50 mg/ml, Invitrogen). Cells were washed 3 times with PBS w/o Ca²⁺/Mg²⁺ and were detached from the culture plate non-enzymatically with EDTA dissociation buffer (Gibco). Cells were washed in cold FACS buffer (PBS w/o Ca²⁺/Mg²⁺ and heat-inactivated 3% FCS) and were counted using a countess machine (Invitrogen). 10⁵ cells per well were plated and incubated with the respective primary antibody (5 μg/ml) for 1 h at 4° C. on a plate shaker. […] After 2 times washing the cells were resuspended in 100 μl FACS buffer and were analysed on a FACS Canto II machine (Beckton Dickinson) or a FACS Array (Beckton Dickinson).
(§4) For EC₅₀ analysis, the primary antibodies were used at increasing concentrations in a range from 0.1 nM to 100 nM. Half maximal binding values (EC₅₀) were determined by plotting the median fluorescence intensity signal against the concentration (logarithmic scale). Curve fitting of data was performed using the Graph Pad prism analysis software.
For orientation: In flow cytometry, cells or beads pass a laser one at a time.

In test [4] the target is T4, human CEACAM1, full-length, on transfected HeLa cells (human, UniProt P13688 35-526).
T4 construct: also called TPP-4185; HeLa human CEACAM1
T4 sequence: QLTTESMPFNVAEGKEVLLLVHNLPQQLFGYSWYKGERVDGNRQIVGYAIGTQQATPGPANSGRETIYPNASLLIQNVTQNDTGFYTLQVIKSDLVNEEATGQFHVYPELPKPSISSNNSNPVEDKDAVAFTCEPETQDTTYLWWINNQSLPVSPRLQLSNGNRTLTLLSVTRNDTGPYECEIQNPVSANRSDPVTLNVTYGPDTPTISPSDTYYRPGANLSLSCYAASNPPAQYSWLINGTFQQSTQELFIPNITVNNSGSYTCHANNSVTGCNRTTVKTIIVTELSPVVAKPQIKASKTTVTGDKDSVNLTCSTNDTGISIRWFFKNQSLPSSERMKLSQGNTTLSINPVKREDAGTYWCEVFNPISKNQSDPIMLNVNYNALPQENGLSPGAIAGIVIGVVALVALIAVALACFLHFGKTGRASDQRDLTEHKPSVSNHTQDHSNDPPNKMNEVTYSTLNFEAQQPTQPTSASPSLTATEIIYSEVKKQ
The test can be described thus: FACS, transfected HeLa cells. The method, then: as §3, §4

In test [5] the target is T5, human CEACAM8, full-length, on transfected HeLa cells (human, UniProt P31997 35-320).
T5 construct: also called TPP-4190; HeLa human CEACAM8
T5 sequence: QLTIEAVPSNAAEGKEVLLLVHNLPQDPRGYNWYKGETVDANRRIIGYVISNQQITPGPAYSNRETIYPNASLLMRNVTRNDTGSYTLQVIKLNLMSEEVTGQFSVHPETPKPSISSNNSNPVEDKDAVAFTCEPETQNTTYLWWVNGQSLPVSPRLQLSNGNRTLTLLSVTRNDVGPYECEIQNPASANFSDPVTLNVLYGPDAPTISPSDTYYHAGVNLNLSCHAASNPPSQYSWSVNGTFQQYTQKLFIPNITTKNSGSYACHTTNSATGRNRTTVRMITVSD
The experiment in a line: FACS, transfected HeLa cells. The procedure: as §3, §4

Changes are numbered by the printed parent chain.

The Kd is the concentration at which binding is half-saturated. A lower Kd goes with tighter binding. In general, EC50 refers to the concentration at which the effect is half-maximal. A high value points to a need for much substance.

B1: TPP-3821 (antibody, human IgG2, kappa, V domains shown)
VH: QVTLRESGPALVKPTQTLTLTCTFSGFSLSTYGIGVGWIRQPPGKALEWLAHIWWNDNKYYSTSLKTRLTISKDTSKNQVVLTMTNMDPVDTATYYCARISLPYFDYWGQGTLVTVSS
VL: DIQLTQSPSFLSASVGDRVTITCKASQNVGTAVAWYQQKPGKAPKLLIYSASNRYTGVPSRFSGSGSGTEFTLTISSLQPEDFATYYCQQYNNYPLTFGGGTKVEIKR
notes: humanized from TPP-3187, human IgG2; also called 3187HU2-hIgG2Kappa
As to B1, the equilibrium dissociation constant (Kd) in test [1] is 4.5 nM; in test [2] it was 4.7 nM. The same molecule showed an EC50 in test [3] of 1 nM. Further, the binding result in test [4] and in test [5] was “no binding (tested: 5 µg/ml)” each time.

B2: TPP-3310 (antibody, human IgG2, kappa)
heavy: QVTLRESGPALVKPTQTLTLTCTFSGFSLSTYGIGVGWIRQPPGKALEWLAHIWWNDNKYYSTSLKTRLTISKDTSKNQVVLTMTNMDPVDTATYYCARISLPYFDYWGQGTTLTVSSASTKGPSVFPLAPCSRSTSESTAALGCLVKDYFPEPVTVSWNSGALTSGVHTFPAVLQSSGLYSLSSVVTVPSSNFGTQTYTCNVDHKPSNTKVDKTVERKCCVECPPCPAPPVAGPSVFLFPPKPKDTLMISRTPEVTCVVVDVSHEDPEVQFNWYVDGVEVHNAKTKPREEQFNSTFRVVSVLTVVHQDWLNGKEYKCKVSNKGLPAPIEKTISKTKGQPREPQVYTLPPSREEMTKNQVSLTCLVKGFYPSDIAVEWESNGQPENNYKTTPPMLDSDGSFFLYSKLTVDKSRWQQGNVFSCSVMHEALHNHYTQKSLSLSPG
light: DIQLTQSPSFLSASVGDRVTITCKASQNVGTAVAWYQQKPGKAPKLLIYSASNRYTGVPSRFSGSGSGTEFTLTISSLQPEDFATYYCQQYSSYPLTFGGGTKVEIKRTVAAPSVFIFPPSDEQLKSGTASVVCLLNNFYPREAKVQWKVDNALQSGNSQESVTEQDSKDSTYSLSSTLTLSKADYEKHKVYACEVTHQGLSSPVTKSFNRGEC
notes: humanized from TPP-2971, human IgG2; also called TPP-2971HU1-hIgG2Kappa
As for B2, the Kd in test [1] turned out to be 3.7 nM; in test [2] it was 3.4 nM. The molecule further came in with an EC50 in test [3] of 0.6 nM. For the same molecule, the binding result in test [4] and in test [5] was “no binding (tested: 5 µg/ml)” throughout.

B3: TPP-3820 (antibody, human IgG2, kappa, V domains shown)
VH: B1 VH with S30T, A46G
VL: B1 VL
notes: humanized from TPP-3187, human IgG2; also called 3187HU1-hIgG2Kappa
On to B3, for which the Kd amounted to 5.1 nM in test [1] and 5.2 nM in test [2]. A half-maximal effect in test [3] (EC50) was put at 1 nM. Moreover, the binding result in test [4] and in test [5] was “no binding (tested: 5 µg/ml)” each time.

B4: TPP-2971 (antibody, mouse IgG1, V domains shown)
VH: QVTLKESGPGILQPSQTLSLTCSFSGFSLSTYGIGVGWIRQPSGKDLEWLAHIWWNDNKYYNTALKSRLTISKDTSNNQVFLKIASVDTADTATYYCARISLPYFDYWGQGTTLTVSS
VL: DIVMTQSQKFMSTSVGDRVSITCKASQNVGTAVAWYQQKPGQSPKLLIYSASNRYTGVPDRFTGSGSGTDFTLTISNMQSEDLADYFCQQYSSYPLTFGAGTKLELK
notes: murine hybridoma antibody, mouse IgG1; also called 792.15H12C9
Regarding B4, the Kd worked out at 11 nM in test [1] and 5.3 nM in test [2]. Further, the EC50 in test [3] amounted to 0.5 nM. This molecule showed an FACS median fluorescence in test [3] of 10 to 100 medianfluorescence. In addition, the binding result in test [4] and in test [5] was “no binding (tested: 5 µg/ml)” throughout.

B5: TPP-3187 (antibody, mouse IgG1, V domains shown)
VH: B4 VH with S30T, D46G
VL: B4 VL with S92N, S93N
notes: murine hybridoma antibody, mouse IgG1; also called 792.15C4F4
In the case of B5, the Kd in test [1] stood at 12 nM; in test [2], 6.9 nM. In test [3], this molecule showed an EC50 of 0.35 nM. In test [3], this molecule gave an FACS median fluorescence of 100 to 1000 medianfluorescence. The binding result in test [4] and in test [5] was “no binding (tested: 5 µg/ml)” each time.

B6: TPP-3705 (antibody, human IgG2, kappa, V domains shown)
VH: EVQLVESGGGLVQPGGSLRLSCAASGFTFSLYQMHWVRQAPGKGLEWVSWISFSGGNTGYADSVKGRFTISRDNSKNTLYLQMNSLRAEDTAVYYCARATGYSSPWYLDPWGQGTLVTVSS
VL: DIQMTQSPSSLSASVGDRVTITCQASHEIDNYLNWYQQKPGKAPKLLIYDAYWLKTGVPSRFSGSGSGTDFTLTISSLQPEDIATYYCQGYDDLSVTFGGGTKVDIKR
notes: also called 090E-M007-A09-Mat1-hIgG2-hIgG2Kappa
On to B6, for which the Kd came to 6.7 nM in test [1] and 2.7 nM in test [2].

B7: TPP-3707 (antibody, human IgG2, kappa, V domains shown)
VH: B6 VH
VL: B6 VL with L54S
notes: also called 090E-M007-A09-Mat2-hIgG2-hIgG2Kappa
B7: the Kd in test [1] came to 6.4 nM; in test [2] it was 2.4 nM. The same molecule returned an EC50 in test [3] of 19 nM. In addition, the figures for the FACS median fluorescence in test [3] and in test [4] were 1000 to 10000 medianfluorescence and 10 to 100 medianfluorescence, respectively. Further, in test [5], the binding result is recorded as “no binding (tested: 5 µg/ml)”.

Values taken from patent US20200181261A1 (Bayer, published 2020).
